Data reported in patent publication US20150110760A1.

Columns and labels:
B7-H6 (human) = B7-H6 (human) (UniProt Q68D85); test: cell-based or functional assay
[1] = molecular target: NKp30 ligands on human dendritic cells (iDCs and mDCs); test: cell-based or functional assay

Chain of UniProt Q68D85 (Q68D85 25-454): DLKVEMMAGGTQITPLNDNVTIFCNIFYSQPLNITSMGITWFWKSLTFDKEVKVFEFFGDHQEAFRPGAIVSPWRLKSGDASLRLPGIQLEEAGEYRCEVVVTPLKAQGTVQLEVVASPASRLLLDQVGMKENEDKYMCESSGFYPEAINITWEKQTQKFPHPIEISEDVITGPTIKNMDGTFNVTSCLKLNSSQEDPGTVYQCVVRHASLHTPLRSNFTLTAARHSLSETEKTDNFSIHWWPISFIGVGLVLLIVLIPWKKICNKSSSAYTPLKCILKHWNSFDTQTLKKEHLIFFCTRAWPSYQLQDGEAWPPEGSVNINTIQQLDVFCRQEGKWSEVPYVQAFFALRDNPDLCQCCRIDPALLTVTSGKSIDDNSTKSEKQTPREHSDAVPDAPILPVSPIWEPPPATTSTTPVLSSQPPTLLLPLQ

Work on NKp30-CD3ζ chimeric receptor yielded a specific lysis of RMA/B7-H6 cells by transduced mouse T cells, 5-h LDH release, E:T 1:1 (B7-H6 (human)) of 80%.

With NKp30-CD28-CD3ζ chimeric receptor the IFN-γ production by transduced human T cells after 24 h coculture with iDCs or mDCs (5:1), ELISA [1] was 200 to 800 pg/mL and the specific lysis of RMA/B7-H6 cells by transduced mouse T cells, 5-h LDH release, E:T 1:1 (B7-H6 (human)) was 80%.
